Laboratory results: PMC4384432

Molecular target: β-haemoglobin (β^h), haem-bound, from human blood (human)
Test: SEC-MALS

stoichiometry N: 4
Substance: β-haemoglobin (β^h), haem-bound, from human blood (natural protein)
